The source of these data is the DeepSol protein solubility set.

This series in a line: soluble on expression in E. coli; label from the status in PepcDB or PDB records.
Regarding “MDEDTRLSRYLYLTDREHINVDSIKQLCKISDPNACYRCGCTALHEYFYNYRSVNGKYKYRYNGYYQYYSSSDYENYNEYYYDDYDRTGMNSESDNISIKTEYENEYEFYDETQDQSTQLVDYDIKLKTNEDDFVDEFYGYDRSVGVHDYIDVSINKVVYGRESHVRWRDIWQEHNDGVYSIGKECIDNIYEDRHTVDEFYKIDSVSDVDDAEHISQITNDVSTQTWEKKSELDRYMEMYPRHRYGKHSVFKGFSDKVRKNDLDMNVVKELLSNGASLTIKDSSNKDPIAVYFRRTIMNLEMIDIINKHTTIYERRYIVHSYLKNYRNFDYPFFRKLVLTNKHCLNNYYNISDSKYGTPLHILASNKKIITPNYMKLLVYNGNDINARGEDTQMRTPLHKYLCKFVYHNIEYGIRYYNEKIIDAFIELGADLTIPNDDGMIPVVYCIHSNAEYGYNNITNIKIIRKLLNLSRHASHNLFRDRVMHDYISNTYIDLECLDIIRSLDGYDINCYFEGRTPLHCAIQYNFTQIAEYLLDRGADISLKTDDGKTVFDLSLCSYIPLKWTSFLISRLPPKSVICSLTNHIIDYVLTNNRRIIWQSQMINKYVLLLDPSFYYRFRNAIENKLDQYNNRYNMFEHDRDVNEKYGKVLHDLDTYIKDVQVLKSTSITNNITLYDTIINNKSEFPIRRANDKQLINLIKSNTYHNLIEKVIKNTLEKYTLTNIVLEYMISSQSQSQSSYLSRIPNEILLEILYKLDMYDLRNLYTRYMRENDITEYHIENTRSVSTQT”, the “soluble on expression in E. coli” value is listed as “not soluble”.

On to “GMKTIDLADIQAFLYRESRLLDDKAWDAWLDCYRADAVFWMPSWDDADALVTDPQREISLIYYPNRQGLEDRVFRIKTERSSATVPDTRTSHNIANVERESADGDVHTVRFNWHTLSYRYKTVSSYFGMSRYAIDFSGDAPKIVSKYVVLKNDYINQLIDIYHI”, for which the “soluble on expression in E. coli” value is “soluble”.

“MKALTLKVFYENSDPNKSSSKQAKYLAIADALRKAIRERQIAPTEALPSARKLAQQLSVNRHTIMAALAELVAQGWVEVRERSGYRVVENLPIQGSRTINKVAKTPQSFDWKFRVKQTFAVTPKVKASEYPYNFSGGQPDIRKFPFDEFKSHFSQTCQRPKIDDLSYGDSRGEAELIEEIATYLRRVRSITDKELMICNGSQEALYMISQLLLQPGDKVAVEQLGYPPAWAAFERTGATLIAVKQDERGINPEHLAQVFAKGKVKLLYLTPLHQYPTTVSLDISRRMQIYQLAVQYGVAIVEDDYDHEFHYDSQPIAPMAADDPAGLVIYISTFSKLMFGGARIGYVVANNALIEQVAAYKMVMNHKCNVLVQQAVAKWMQQGGFEAHLRRMTRLYQKRRDFMVQQLRSFQDKGLPIHFEVPAGGMAIWLDTGKSIIGLKEKLLPQQVYLQTEVEFSRFNELPDDLPRTKYRFIRLGFAAMNEAEVTQGLDIVMNTLYGLVSE”: the “soluble on expression in E. coli” value is listed as “not soluble”.

On to “MNKQLTTIGIMASLFATSSFATDWTQIEKEAQGQTVYFHAWGGSQEINHYLQWANKELQSKYQVTLKHVKVSDISETIPRLIAEKAADKNTNGSVDMVWINGENFKSMKDNQLLFGPFTENLPSWKYVDKMLPIDVDFSEPTDGLEAPWGVGQLVFIHDSENLTNPPHSFAEMLSYAQKKPNSLSYPRPPEFHGTSVLKSMLIELTNNNPALQKPVSESDFNAVTAPLWDYLEKFHKVAWRGGKQFPAGTSETIQLLDDGQLDLAVTFNPNAVYSAQANGNLANTTKAYAMDSGALSNIHFLAIPWNAKASAGAQVAINFLLSPEAQSRKGDLNVWGDPSVLSSKYLTGSAKNTQQFKSVSEPHPSWQAAIEKEWLKRFGS”, for which the “soluble on expression in E. coli” value is given as “soluble”.

For “MKEYLTRSNISYFSIGSGTPIIFLHGLSLDKQSTCLFFEPLSNVGQYQRIYLDLPGMGNSDPISPSTSDNVLETLIEAIEEIIGARRFILYGHSYGGYLAQAIAFHLKDQTLGVFLTCPVITADHSKRLTGKHINILEEDINPVENKEYFADFLSMNVIINNQAWHDYQNLIIPGLQKEDKTFIDQLQNNYSFTFEEKLKNINYQFPFKIMVGRNDQVVGYQEQLKLINHNENGEIVLLNRTGHNLMIDQREAVGFHFDLFLDELNSNN”, the “soluble on expression in E. coli” value was “soluble”.

Turning to “MGHHHHHHSHMGNNSESKGSASDSKGAETFTYKAENGNVKIPKHPKRVVVMADGYYGYFKTLGINVVGAPENVFKNPYYKGKTNGVENIGDGTSVEKVIDLNPDLIIVWTTQGADIKKLEKIAPTVAVKYDKLDNIEQLKEFAKMTGTEDKAEKWLAKWDKKVAAAKTKIKKAVGDKTISIMQTNGKDIYVFGKDFGRGGSIIYKDLGLQATKLTKEKAIDQGPGYTSISLEKLPDFAGDYIFAGPWQSGGDDGGVFESSIWKNLNAVKNGHVYKMDPIGFYFTDPISLEGQLEFITESLTK”, the “soluble on expression in E. coli” value was “soluble”.

As to “MTIRSYKNLNLVRANIETESRQFIENKNYSIQSIGPMPGSRAGLRVVFTRPGVNLATVDIFYNGDGSTTIQYLTGANRSLGQELADHLFETINPAEFEQVNMVLQGFVETSVLPVLELSADESHIEFREHSRNAHTVVWKIISTSYQDELTVSLHITTGKLQIQGRPLSCYRVFTFNLAALLDLQGLEKVLIRQEDGKANIVQQEVARTYLQTVMADAYPHLHVTAEKLLVSGLCVKLAAPDLPDYCMLLYPELRTIEGVLKSKMSGLGMPVQQPAGFGTYFDKPAAHYILKPQFAATLRPEQINIISTAYTFFNVERHSLFHMETVVDASRMISDMARLMGKATRAWGIIKDLYIV”, the “soluble on expression in E. coli” value was “soluble”.

On to “MQGSVTEFLKPRLVDIEQISTTHAKVTLEPLERGFGHTLGNALRRILLSSMPGCAVTEVEIEGVLHEYSTKEGVQEDILEILLNLKGLAVRVAEGKDEVFITLNKSGSGPVVAGDITHDGDVEIVNPEHVICHLTSDNAAIAMRIKVERGRGYVPASARIHTEEDERPIGRLLVDATFSPVDKIAYSVEAARVEQRTDLDKLVIDMETNGTLEPEEAIRRAATILAEQLDAFVDLRDVRVPEEKEEKPEFDPILLRPVDDLELTVRSANCLKAEAIHYIGDLVQRTEVELLKTPNLGKKSLTEIKDVLASRGLSLGMRLENWPPASIAED”, for which the “soluble on expression in E. coli” value is recorded as “soluble”.

Regarding “MSLAEPDDDWLHVEGTNIVDKYGNKVWITGANWFGFNCRERMLLDSYHSDIIADIELVADKGINVVRMPIATDLLYAWSQGIYPPSTDTSYNNPALAGLNSYELFNFMLENFKRVGIKVILDVHSPETDNQGHNYPLWYNTTITEEIFKKAWVWVAERYKNDDTIIGFDLKNEPHTNTGTMKIKAQSAIWDDSNHPNNWKRVAEETALAILEVHPNVLIFVEGVEMYPKDGIWDDETFDTSPWTGNNDYYGNWWGGNLRGVKDYPINLGKYQSQLVYSPHDYGPIVYEQDWFKGDFITANDEQAKRILYEQCWRDNWAYIMEEGISPLLLGEWGGMTEGGHPLLDLNLKYLRCMRDFILENKYKLHHTFWCINIDSADTGGLFTRDEGTPFPGGRDLKWNDNKYDNYLYPVLWKTEEGHHHHHH”, the “soluble on expression in E. coli” value is recorded as “not soluble”.

In the case of “MGSDKIHHHHHHMVQREKNVVNEQEIELIIGNSNSNFSGVTSTMLQVLSHEQSLINLRVMGKHHLPDESLSISFWQVANLSTKPLPKGKFRIFHARRVDEMIQALLLKYVFRVKLKIVFSSAAQRYRSGFTLWLTDRMDAVLAMCKASASYLHRKPDAIIYHGVKTDIYLPATDKSKAWQSLGLLPENSAKGKKGIAILGRVRKQKGVHLFVESCIDILKDRPDYTAVIVGSISSSNESFVNELQSKIDQAGLTERIVFAGEQNFADIPKIFSSLSLVVALSENEGFGLTILEAMSSGAAVLASEAGAWPEVVRQGVDGYVVPINDLDAVTEKMSLLLADEEKLMQMGRDGRERVLEHYSVEREAKELVTFFRSLM”, the “soluble on expression in E. coli” value is recorded as “not soluble”.

In the case of “MHHHHHHGSTKTNSEILEQLKQASDGLLFMSESEYPFEVFLWEGSAPPVTHEIVLQQTGHGQDAPFKVVDIDSFFSRATTPQDWYEDEENAVVAKFQKLLEVIKSNLKNPQVYRLGEVELDVYVIGETPAGNLAGISTKVVET”, the “soluble on expression in E. coli” value was “soluble”.

For the sequence “PTPKTELVQKFRVQYLGMLPVDRPVGMDTLNSAIENLMTSSSKEDWPSVNMNVADATVTVISEKNEEEVLVECRVRFLSFMGVGKDVHTFAFIMDTGNQRFECHVFWCEPNAANVSEAVQAACSGPSSGIEGRGSSGSSGSSGSSGDAAVTPEERHLSKMQQNGYENPTYKFFEQMQN”, the “soluble on expression in E. coli” value is “soluble”.
